Like-named read-outs stand apart in the source and are kept apart here. Where no end group is shown, it is not given here. [ ]: non-standard residue; d: D form. APC = trans-3-aminopyrrolidine-4-carboxylic acid; ACPC = trans-2-aminocyclopentanecarboxylic acid; β3hR = N=C(N)NCCC[C@H](N)CC(=O)O; β3hT = C[C@@H](O)[C@H](N)CC(=O)O; β3hE = N[C@@H](CCC(=O)O)CC(=O)O; β3hA = C[C@H](N)CC(=O)O
Key:
gp41-5 [1] = target: T1, gp41-5 (HIV); experiment: competition FP on gp41-5
T1 construct: also called gp41-5 protein construct; five-helix bundle protein

gp41-5 [2] = target: T1, gp41-5; experiment: competition FP; displacement of Flu-C38 from gp41-5
gp41-5 [3] = target: T1, gp41-5; experiment: as above; remark: listed apart in the source
gp41-5 [4] = target: T1, gp41-5; experiment: as above; remark: listed apart in the source
gp41 of HIV-1 strain HC4 = gp41 of HIV-1 strain HC4 (HIV-1 strain HC4); experiment: cell-based or functional assay
[5] = target: T2, gp41 of the envelope glycoprotein of the HIV-1 clone HxB2 (HIV-1 clone HxB2, UniProt P04578 33-856); experiment: cell-based or functional assay
[6] = target: gp41 of HIV-1 strain NL4-3 (HIV-1 strain NL4-3); experiment: cell-based or functional assay
[7] = target: gp41 of HIV-1 strain DJ258 (HIV-1 strain DJ258); experiment: cell-based or functional assay
[8] = target: gp41 of HIV-1 strain CC 1/85 (HIV-1 strain CC 1/85); experiment: cell-based or functional assay
NHR α-peptide 1 [9] = target: T3, NHR α-peptide 1 (HIV, N-terminus acetyl-capped); experiment: CD at 222 nm, thermal unfolding, 20 µM total peptide in PBS
T3 construct: Forms a six-helix bundle (three NHR and three CHR helices) when mixed with CHR peptides; also called NHR peptide 1

NHR α-peptide 1 [10] = target: T3, NHR α-peptide 1; experiment: as above; remark: listed apart in the source
[11] = target: the molecule itself; experiment: crystal structure of 10 alone (self-assembly)
[12] = target: T2, gp41 of the envelope glycoprotein of …; experiment: cell-based or functional assay; remark: listed apart in the source

For Ac-[β3hT]TWE[ACPC]WD[β3hR]AIA[β3hE]YA[ACPC]RIE[ACPC]LI[β3hR]AAQ[β3hE]QQ[β3hE]KNE[ACPC]AL[β3hR]EL (not fully specified, to be checked against the listing) [α/β-peptide 9], the “fold higher affinity than 4” value (gp41-5 [1]) was 50 fold, the “fold improvement in Ki relative to 4” value (gp41-5 [1]) was over 45 fold and the Ki (gp41-5 [2]) was 83 nM. For the same binder, the Ki (gp41-5 [3]) was 83 nM.

Work on Ac-[β3hR]TWE[β3hE]WD[β3hR]AIA[β3hE]YA[β3hR]RIE[β3hE]LI[β3hR]AAQ[β3hE]QQ[β3hR]KNE[β3hE]AL[β3hR]EL-NH2 (also called compound 17; peptide 17) [α/β foldamer 17] yielded a Ki (gp41-5 [4]) of 11 nM.

B1: α/β-peptide 10 (peptide)
peptide: Ac-[β3hT]TWE[ACPC]WD[APC]AIA[β3hE]YA[ACPC]RIE[ACPC]LI[APC]AAQ[β3hE]QQ[β3hE]KNE[ACPC]AL[APC]EL-NH2
notes: Made from 9 by replacing the three β3-hArg residues with APC; also called foldamer 10
With B1 the “Inhibition of HIV-1 infectivity, IC50 (nM), HC4” value (from here on “Inhibition … HC4”) (gp41 of HIV-1 strain HC4) was 59 nM, the “Cell-cell fusion inhibition IC50” value [5] was 5 nM and the “Inhibition of HIV-1 infectivity, IC50 (nM), NL4-3” value (shortened to “Inhibition … NL4-3”) [6] was 28 nM. The “Inhibition of HIV-1 infectivity, IC50 (nM), DJ258” value (from here on “Inhibition … DJ258”) [7] was 110 nM, the “Inhibition of HIV-1 infectivity, IC50 (nM), CC 1/85” value (“Inhibition … CC 1/85” for short) [8] was 180 nM and the “Tm of the 1:1 NHR + CHR mixture” value (NHR α-peptide 1 [9]) was 55 ° C. For the same binder, the “Tm,app of the 1:1 NHR + CHR mixture” value (NHR α-peptide 1 [10]) was 55 ° C, the binding result [11] was “binds” and the “fold difference in affinity against 5” value (gp41-5 [1]) was over 45 fold. The “fold enhanced binding relative to 4” value (gp41-5 [1]) was about 380 fold, the “fold improvement in Ki relative to 9” value (gp41-5 [1]) was about 10 fold and the Ki (gp41-5 [2]) was 9 nM. For the same binder, the Ki (gp41-5 [3]) was 9 nM and the “Cell-Cell Fusion IC50” value [12] was 5 nM.

Binder Ac-[β3hR]TWE[β3hE]WD[β3hR]AIA[β3hE]YA[ACPC]RIE[ACPC]LI[APC]AAQ[ACPC]QQ[APC]KNE[ACPC]AL[APC]EL-NH2 (not fully specified, also called compound 16; peptide 16) [α/β foldamer 16] has a Ki (gp41-5 [4]) of 3 nM.

B2: (α+α/β)-peptide 5 (peptide)
peptide: Ac-TTWEAWDRAIAEYAARIEALI[β3hR]AAQ[β3hE]QQ[β3hE]KNE[β3hA]AL[β3hR]EL
notes: Chimera of α-peptide 3 and α/β-peptide 4; also called oligomer 5
With B2 the “Inhibition … HC4” value (gp41 of HIV-1 strain HC4) was 55 nM, the “Cell-cell fusion inhibition IC50” value [5] was 7 nM and the “Inhibition … NL4-3” value [6] was 10 nM. The “Inhibition … DJ258” value [7] was 280 nM, the “Inhibition … CC 1/85” value [8] was 270 nM and the “Tm of the 1:1 NHR + CHR mixture” value (NHR α-peptide 1 [9]) was 69 ° C. The “Tm,app of the 1:1 NHR + CHR mixture” value (NHR α-peptide 1 [10]) was 67 ° C, the Ki (gp41-5 [2]) was under 0.2 nM and the Ki (gp41-5 [3]) was 0.2 nM. The “Cell-Cell Fusion IC50” value [12] was 7 nM.

With Ac-[β3hT]TWE[β3hA]WD[β3hR]AIA[β3hE]YA[β3hA]RIE[β3hA]LI[β3hR]AAQ[β3hE]QQ[β3hE]KNE[β3hA]AL[β3hR]EL (also called oligomer 4) [α/β-peptide 4] the “Inhibition … HC4” value (gp41 of HIV-1 strain HC4) was 590 nM, the “Cell-cell fusion inhibition IC50” value [5] was 390 nM and the “Inhibition … NL4-3” value [6] was 700 nM. The “Inhibition … DJ258” value [7] was 960 nM, the “Inhibition … CC 1/85” value [8] was 1300 nM and the “fold weaker binding than α-peptide 3” value (gp41-5 [1]) was over 10000 fold. The Ki (gp41-5 [2]) was 3800 nM, the Ki (gp41-5 [3]) was 3800 nM and the “Cell-Cell Fusion IC50” value [12] was 390 nM.

In the case of Ac-TTWEAWDRAIAEYAARIEALIRAAQEQQEKNEAALREL (also called T-2635; CHR α-peptide 3) [α-peptide 3], the “Inhibition … HC4” value (gp41 of HIV-1 strain HC4) is reported as 27 nM, the “Cell-cell fusion inhibition IC50” value [5] is reported as 9 nM and the “Inhibition … NL4-3” value [6] is reported as 5 nM. The “Inhibition … DJ258” value [7] was 58 nM, the “Inhibition … CC 1/85” value [8] was 140 nM and the “Tm of the 1:1 NHR + CHR mixture” value (NHR α-peptide 1 [9]) was 77 ° C. For the same binder, the “Tm,app of the 1:1 NHR + CHR mixture” value (NHR α-peptide 1 [10]) was 77 ° C, the Ki (gp41-5 [2]) was under 0.2 nM and the Ki (gp41-5 [3]) was 0.2 nM. The “Cell-Cell Fusion IC50” value [12] was 9 nM.

B3: chimeric CHR α/β-peptide 8 (peptide)
peptide: Ac-TTWEAWDRAIAEYA[ACPC]RIE[ACPC]LI[APC]AAQ[β3hE]QQ[β3hE]KNE[ACPC]AL[APC]EL-NH2
modifications: not fully specified
notes: Made from 7 by replacing two β3-hArg residues with APC
In the case of B3, the “Tm,app of the 1:1 NHR + CHR mixture” value (NHR α-peptide 1 [10]) is reported as 65 ° C.

B4: α/β-peptide 6 (peptide)
peptide: Ac-TTWEAWDRAIAEYA[β3hA]RIE[β3hA]LI[β3hR]AAQ[β3hE]QQ[β3hE]KNE[β3hA]AL[β3hR]EL
notes: also called (α+α/β)-peptide 6; oligomer 6
B4 was tested, and the Ki (gp41-5 [2]) was 15 nM and the Ki (gp41-5 [3]) was 15 nM.

B5: α/β-peptide 11 (peptide)
peptide: Ac-A[β3hE]YA[ACPC]RIE[ACPC]LI[APC]AAQ[β3hE]QQ[β3hE]KNE[ACPC]AL[APC]EL
notes: also called oligomer 11; truncated α/β-peptide 11
Binder B5 has a Ki (gp41-5 [2]) of over 10000 nM.

For Ac-TTWEAWDRAIAEYA[ACPC]RIE[ACPC]LI[β3hR]AAQ[β3hE]QQ[β3hE]KNE[ACPC]AL[β3hR]EL (also: other residues as in 6, also called oligomer 7) [α/β-peptide 7], the “fold higher affinity relative to 6” value (gp41-5 [1]) was over 30 fold, the “fold improvement in binding relative to 6” value (gp41-5 [1]) was 40 fold and the Ki (gp41-5 [2]) was 0.4 nM. The Ki (gp41-5 [3]) was 0.4 nM.
